Reference: the supplement of paper PMC9112550, “Optimization of the antimicrobial peptide Bac7 by deep mutational scanning” (BMC Biology, 2022)

System: Escherichia coli TOP10
Assay: shrunken log2 fold change of peptide-encoding DNA abundance (4.5 h post-induction vs induction); higher = less antimicrobial activity (less host growth inhibition)
Settings: time post-induction: 4.5 h; library: site-saturation at positions 5, 18, 19, 20
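Further: peptides expressed intracellularly from a pBAD plasmid library in pooled LB shake-flask culture, induced with 0.3% L-arabinose, DNA abundance read by NGS, three biological replicates, DESeq2 with apeglm shrinkage.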

Row | Sequence | shrunken log2 fold change
1 | RRIRPRPPRLPRPRPRPTRQPRP | 0.221
2 | RRIRPRPPRLPRPRPRPTSKPRP | 0.188
3 | RRIRPRPPRLPRPRPRPTTFPRP | -0.173
4 | RRIRPRPPRLPRPRPRPTTIPRP | -0.223
5 | RRIRPRPPRLPRPRPRPTTLPRP | -0.0741
6 | RRIRPRPPRLPRPRPRPTTMPRP | -0.126
7 | RRIRPRPPRLPRPRPRPTVAPRP | 0.277
8 | RRIRPRPPRLPRPRPRPTWVPRP | 0.0694
9 | RRIRPRPPRLPRPRPRPVAFPRP | -0.0622
10 | RRIRPRPPRLPRPRPRPVASPRP | 0.00755
11 | RRIRPRPPRLPRPRPRPVAYPRP | -0.173
12 | RRIRPRPPRLPRPRPRPVDCPRP | 0.00936
13 | RRIRPRPPRLPRPRPRPVDEPRP | 0.0247
14 | RRIRPRPPRLPRPRPRPVDQPRP | -0.256
15 | RRIRPRPPRLPRPRPRPVFHPRP | -0.178
16 | RRIRPRPPRLPRPRPRPVKHPRP | -0.0566
17 | RRIRPRPPRLPRPRPRPVKNPRP | 0.00624
18 | RRIRPRPPRLPRPRPRPVMIPRP | -0.251
19 | RRIRPRPPRLPRPRPRPVMYPRP | -0.0963
20 | RRIRPRPPRLPRPRPRPVPKPRP | 0.34
21 | RRIRPRPPRLPRPRPRPVPQPRP | 0.446
22 | RRIRPRPPRLPRPRPRPVQPPRP | 0.000272
23 | RRIRPRPPRLPRPRPRPVRMPRP | 0.213
24 | RRIRPRPPRLPRPRPRPVRQPRP | 0.219
25 | RRIRPRPPRLPRPRPRPVSLPRP | -0.104

Row | Sequence | shrunken log2 fold change
26 | RRIRPRPPRLPRPRPRPVSQPRP | -0.0764
27 | RRIRPRPPRLPRPRPRPVTIPRP | -0.344
28 | RRIRPRPPRLPRPRPRPVTKPRP | 0.138
29 | RRIRPRPPRLPRPRPRPVVGPRP | 0.212
30 | RRIRPRPPRLPRPRPRPWCNPRP | -0.239
31 | RRIRPRPPRLPRPRPRPWDKPRP | -0.629
32 | RRIRPRPPRLPRPRPRPWENPRP | -0.0456
33 | RRIRPRPPRLPRPRPRPWFHPRP | 0.0116
34 | RRIRPRPPRLPRPRPRPWILPRP | -0.451
35 | RRIRPRPPRLPRPRPRPWKAPRP | -0.133
36 | RRIRPRPPRLPRPRPRPWKNPRP | -0.0413
37 | RRIRPRPPRLPRPRPRPWLAPRP | 0.343
38 | RRIRPRPPRLPRPRPRPWLQPRP | -0.064
39 | RRIRPRPPRLPRPRPRPWPEPRP | 0.0423
40 | RRIRPRPPRLPRPRPRPWPNPRP | -0.0364
41 | RRIRPRPPRLPRPRPRPWQVPRP | -0.0573
42 | RRIRPRPPRLPRPRPRPWREPRP | -0.00316
43 | RRIRPRPPRLPRPRPRPWRPPRP | 0.12
44 | RRIRPRPPRLPRPRPRPWSAPRP | -0.00633
45 | RRIRPRPPRLPRPRPRPWTIPRP | -0.117
46 | RRIRPRPPRLPRPRPRPWVCPRP | 0.23
47 | RRIRPRPPRLPRPRPRPWVQPRP | 0.0127
48 | RRIRPRPPRLPRPRPRPWWLPRP | -0.0379
49 | RRIRPRPPRLPRPRPRPWYMPRP | -0.247
50 | RRIRPRPPRLPRPRPRPWYSPRP | -0.22

Row | Sequence | shrunken log2 fold change
51 | RRIRPRPPRLPRPRPRPYATPRP | -0.446
52 | RRIRPRPPRLPRPRPRPYAVPRP | -0.712
53 | RRIRPRPPRLPRPRPRPYCLPRP | -0.115
54 | RRIRPRPPRLPRPRPRPYDCPRP | -0.021
55 | RRIRPRPPRLPRPRPRPYDWPRP | 0.0551
56 | RRIRPRPPRLPRPRPRPYEPPRP | -0.317
57 | RRIRPRPPRLPRPRPRPYFTPRP | -0.882
58 | RRIRPRPPRLPRPRPRPYFYPRP | -0.787
59 | RRIRPRPPRLPRPRPRPYHTPRP | -1.66
60 | RRIRPRPPRLPRPRPRPYIEPRP | -0.322
61 | RRIRPRPPRLPRPRPRPYIIPRP | -0.455
62 | RRIRPRPPRLPRPRPRPYKKPRP | -0.574
63 | RRIRPRPPRLPRPRPRPYKYPRP | -1.13
64 | RRIRPRPPRLPRPRPRPYMFPRP | -0.897
65 | RRIRPRPPRLPRPRPRPYMMPRP | -0.309
66 | RRIRPRPPRLPRPRPRPYMPPRP | -0.854
67 | RRIRPRPPRLPRPRPRPYNMPRP | -1.44
68 | RRIRPRPPRLPRPRPRPYPLPRP | -0.861
69 | RRIRPRPPRLPRPRPRPYPQPRP | -0.252
70 | RRIRPRPPRLPRPRPRPYQAPRP | -0.0753
71 | RRIRPRPPRLPRPRPRPYQDPRP | -0.025
72 | RRIRPRPPRLPRPRPRPYQMPRP | -0.722
73 | RRIRPRPPRLPRPRPRPYRWPRP | 0.087
74 | RRIRPRPPRLPRPRPRPYSAPRP | -1.14
75 | RRIRPRPPRLPRPRPRPYSCPRP | -0.183

Row | Sequence | shrunken log2 fold change
76 | RRIRPRPPRLPRPRPRPYVLPRP | -0.519
77 | RRIRPRPPRLPRPRPRPYWVPRP | -0.284
78 | RRIRPRPPRLPRPRPRPYWYPRP | -0.958
79 | RRIRPRPPRLPRPRPRPYYMPRP | -0.864
80 | RRIRQRPPRLPRPRPRPACIPRP | -0.165
81 | RRIRQRPPRLPRPRPRPADQPRP | 0.012
82 | RRIRQRPPRLPRPRPRPADSPRP | -0.00947
83 | RRIRQRPPRLPRPRPRPADYPRP | -0.155
84 | RRIRQRPPRLPRPRPRPAEMPRP | -0.0227
85 | RRIRQRPPRLPRPRPRPAEQPRP | -0.000243
86 | RRIRQRPPRLPRPRPRPAHYPRP | -0.332
87 | RRIRQRPPRLPRPRPRPAICPRP | -0.0709
88 | RRIRQRPPRLPRPRPRPAKPPRP | -0.0548
89 | RRIRQRPPRLPRPRPRPALHPRP | 1.38
90 | RRIRQRPPRLPRPRPRPAMGPRP | 0.127
91 | RRIRQRPPRLPRPRPRPANCPRP | 0.0322
92 | RRIRQRPPRLPRPRPRPANPPRP | -0.234
93 | RRIRQRPPRLPRPRPRPANVPRP | -0.105
94 | RRIRQRPPRLPRPRPRPAQAPRP | 0.0255
95 | RRIRQRPPRLPRPRPRPARQPRP | 0.182
96 | RRIRQRPPRLPRPRPRPASNPRP | -0.00674
97 | RRIRQRPPRLPRPRPRPASQPRP | 0.0572
98 | RRIRQRPPRLPRPRPRPATDPRP | -0.0316
99 | RRIRQRPPRLPRPRPRPATIPRP | -0.123
100 | RRIRQRPPRLPRPRPRPAVSPRP | -0.0348

Row | Sequence | shrunken log2 fold change
101 | RRIRQRPPRLPRPRPRPAVYPRP | -0.15
102 | RRIRQRPPRLPRPRPRPAWAPRP | 0.263
103 | RRIRQRPPRLPRPRPRPAYHPRP | -0.826
104 | RRIRQRPPRLPRPRPRPCDCPRP | -0.0243
105 | RRIRQRPPRLPRPRPRPCDRPRP | -0.0449
106 | RRIRQRPPRLPRPRPRPCDVPRP | -0.15
107 | RRIRQRPPRLPRPRPRPCFGPRP | 0.0162
108 | RRIRQRPPRLPRPRPRPCGCPRP | 0.164
109 | RRIRQRPPRLPRPRPRPCGIPRP | -0.115
110 | RRIRQRPPRLPRPRPRPCGLPRP | 0.131
111 | RRIRQRPPRLPRPRPRPCHFPRP | 0.173
112 | RRIRQRPPRLPRPRPRPCHKPRP | 0.0524
113 | RRIRQRPPRLPRPRPRPCIWPRP | -0.018
114 | RRIRQRPPRLPRPRPRPCKTPRP | -0.01
115 | RRIRQRPPRLPRPRPRPCLAPRP | 0.297
116 | RRIRQRPPRLPRPRPRPCLKPRP | -0.286
117 | RRIRQRPPRLPRPRPRPCLNPRP | -0.632
118 | RRIRQRPPRLPRPRPRPCMDPRP | 0.00489
119 | RRIRQRPPRLPRPRPRPCNAPRP | 0.0357
120 | RRIRQRPPRLPRPRPRPCNCPRP | -0.0201
121 | RRIRQRPPRLPRPRPRPCPFPRP | -0.505
122 | RRIRQRPPRLPRPRPRPCPGPRP | -0.0035
123 | RRIRQRPPRLPRPRPRPCQAPRP | -0.187
124 | RRIRQRPPRLPRPRPRPCQEPRP | -0.015
125 | RRIRQRPPRLPRPRPRPCQKPRP | 0.0369

Row | Sequence | shrunken log2 fold change
126 | RRIRQRPPRLPRPRPRPCRDPRP | 0.0161
127 | RRIRQRPPRLPRPRPRPCSGPRP | -0.0532
128 | RRIRQRPPRLPRPRPRPCTHPRP | -0.502
129 | RRIRQRPPRLPRPRPRPCTWPRP | -0.464
130 | RRIRQRPPRLPRPRPRPCVRPRP | -0.154
131 | RRIRQRPPRLPRPRPRPCVTPRP | -0.141
132 | RRIRQRPPRLPRPRPRPCWIPRP | -0.209
133 | RRIRQRPPRLPRPRPRPDCAPRP | 0.0476
134 | RRIRQRPPRLPRPRPRPDCWPRP | -0.0539
135 | RRIRQRPPRLPRPRPRPDEHPRP | 2.14
136 | RRIRQRPPRLPRPRPRPDFHPRP | 0.0254
137 | RRIRQRPPRLPRPRPRPDFNPRP | -0.164
138 | RRIRQRPPRLPRPRPRPDFVPRP | 0.0112
139 | RRIRQRPPRLPRPRPRPDKGPRP | -0.285
140 | RRIRQRPPRLPRPRPRPDKPPRP | -0.214
141 | RRIRQRPPRLPRPRPRPDKWPRP | -0.00997
142 | RRIRQRPPRLPRPRPRPDLIPRP | 0.0281
143 | RRIRQRPPRLPRPRPRPDLYPRP | -0.105
144 | RRIRQRPPRLPRPRPRPDMIPRP | -0.303
145 | RRIRQRPPRLPRPRPRPDNKPRP | -0.532
146 | RRIRQRPPRLPRPRPRPDPLPRP | 0.00221
147 | RRIRQRPPRLPRPRPRPDQWPRP | 0.129
148 | RRIRQRPPRLPRPRPRPDRDPRP | -0.242
149 | RRIRQRPPRLPRPRPRPDREPRP | 0.00931
150 | RRIRQRPPRLPRPRPRPDSIPRP | -0.00697
